The values below come from patent US20240043537A1.

The target of one experiment is CD3 on T-cells (UniProt P07766). The experiment in a line: cell-based or functional assay.
The target in experiment [1] is CD3 (as used for the BIACORE kinetics of Table 11) (UniProt P07766). The experiment in a line: SPR (BIACORE). For orientation: Surface plasmon resonance follows binding to a sensor surface in real time, without labels.
Sequence of CD3 (as used for the BIACORE kinetics of Table 11) (P07766 23-126): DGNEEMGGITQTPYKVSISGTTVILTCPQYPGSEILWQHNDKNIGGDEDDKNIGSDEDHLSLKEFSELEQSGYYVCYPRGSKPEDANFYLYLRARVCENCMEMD

Sequence of CD3 on T-cells (P07766 23-207): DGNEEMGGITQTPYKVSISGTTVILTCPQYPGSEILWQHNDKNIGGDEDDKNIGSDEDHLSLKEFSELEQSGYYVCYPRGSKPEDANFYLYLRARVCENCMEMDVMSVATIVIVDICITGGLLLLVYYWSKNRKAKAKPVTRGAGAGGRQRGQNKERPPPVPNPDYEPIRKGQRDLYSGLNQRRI

B1: DART-A-M9 (bispecific antibody)
chain 1: DFVMTQSPDSLAVSLGERVTMSCKSSQSLLNSGNQKNYLTWYQQKPGQPPKLLIYWASTRESGVPDRFSGSGSGTDFTLTISSLQAEDVAVYYCQNDYSYPYTFGQGTKLEIKGGGSGGGGEVQLVESGGGLVQPGGSLRLSCAASGFTFSTYAMNWVRQAPGKGLEWVGRIRSKYNNYATYYADSVKDRFTISRDDSKNSLYLQMNSLKTEDTAVYYCVRHKNFGNSYVSWFAYWGQGTLVTVSSGGCGGGKVAALKEKVAALKEKVAALKEKVAALKE
chain 2: QAVVTQEPSLTVSPGGTVTLTCRSSTGAVTTSNYANWVQQKPGQAPRGLIGGTNKRAPWTPARFSGSLLGGKAALTITGAQAEDEADYYCALWYSNLWVFGGGTKLTVLGGGGSGGGGEVQLVQSGAELKKPGASVKVSCKASGYTFTDYYMKWVRQAPGQGLEWIGDIIPSNGATFYNQKFKGRVTITVDKSTSTAYMELSSLRSEDTAVYYCARSHLLRASWFAYWGQGTLVTVSSGGCGGGEVAALEKEVAALEKEVAALEKEVAALEK
Regarding B1, in the experiment with CD3 on T-cells, the EC50 of cytolysis at 18 hours (CTL assay, Pan-T-cells and MOLM-13, E:T = 5:1) turned out to be 0.075 ng/mL; the EC50 of cytolysis at 42 hours (CTL assay, Pan-T-cells and MOLM-13, E:T = 5:1) was 0.001 ng/mL; the R: ratio of 18 hour EC50 to DART-A-WT (CTL assay, Pan-T-cells and MOLM-13, E:T = 5:1) turned out to be 1; the R: ratio of 42 hour EC50 to DART-A-WT (CTL assay, Pan-T-cells and MOLM-13, E:T = 5:1) was found to be 0.4. In the experiment with CD3 on T-cells, this molecule displayed a max % CytoTox at 18 hours (CTL assay, Pan-T-cells and MOLM-13, E:T = 5:1) of 38.2%; a max % CytoTox at 42 hours (CTL assay, Pan-T-cells and MOLM-13, E:T = 5:1) of 30.5%. Moreover, in experiment [1], the Kd came to 3.33 nM, the R (KD ratio to DART-A-WT) amounted to 0.4, the R (ka ratio to DART-A-WT) was 4.3 and the R (kd ratio to DART-A-WT) was found to be 1.8. Further, in experiment [1], the koff was determined as 0.00716 s⁻¹ and the kon came out at 2.15e+06 M⁻¹ s⁻¹.

B2: DART-A-M3 (bispecific antibody)
chain 1: DFVMTQSPDSLAVSLGERVTMSCKSSQSLLNSGNQKNYLTWYQQKPGQPPKLLIYWASTRESGVPDRFSGSGSGTDFTLTISSLQAEDVAVYYCQNDYSYPYTFGQGTKLEIKGGGSGGGGEVQLVESGGGLVQPGGSLRLSCAASGFTFSTYAMNWVRQAPGKGLEWVGRIRSKYNNYATYYADSVKDRFTISRDDSKNSLYLQMNSLKTEDTAVYYCVRHGNFINSYVSWFAYWGQGTLVTVSSGGCGGGKVAALKEKVAALKEKVAALKEKVAALKE
chain 2: QAVVTQEPSLTVSPGGTVTLTCRSSTGAVTTSNYANWVQQKPGQAPRGLIGGTNKRAPWTPARFSGSLLGGKAALTITGAQAEDEADYYCALWYSNLWVFGGGTKLTVLGGGGSGGGGEVQLVQSGAELKKPGASVKVSCKASGYTFTDYYMKWVRQAPGQGLEWIGDIIPSNGATFYNQKFKGRVTITVDKSTSTAYMELSSLRSEDTAVYYCARSHLLRASWFAYWGQGTLVTVSSGGCGGGEVAALEKEVAALEKEVAALEKEVAALEK
Take B2: in the experiment with CD3 on T-cells, the EC50 of cytolysis at 18 hours (CTL assay, Pan-T-cells and MOLM-13, E:T = 5:1) came to 0.108 ng/mL; the EC50 of cytolysis at 42 hours (CTL assay, Pan-T-cells and MOLM-13, E:T = 5:1) worked out at 0.006 ng/mL; the R: ratio of 18 hour EC50 to DART-A-WT (CTL assay, Pan-T-cells and MOLM-13, E:T = 5:1) was found to be 1.4; the R: ratio of 42 hour EC50 to DART-A-WT (CTL assay, Pan-T-cells and MOLM-13, E:T = 5:1) amounted to 2.3. In the experiment with CD3 on T-cells, the max % CytoTox at 18 hours (CTL assay, Pan-T-cells and MOLM-13, E:T = 5:1) amounted to 39.7%; the max % CytoTox at 42 hours (CTL assay, Pan-T-cells and MOLM-13, E:T = 5:1) came out at 28.6%. In experiment [1], the Kd is 18.5 nM, the R (KD ratio to DART-A-WT) is 2.3, the R (ka ratio to DART-A-WT) amounted to 0.9 and the R (kd ratio to DART-A-WT) was found to be 2. In experiment [1], the koff came out at 0.0083 s⁻¹ and the association rate constant (kon) stood at 449000 M⁻¹ s⁻¹.

B3: DART-A-M11 (bispecific antibody)
chain 1: DFVMTQSPDSLAVSLGERVTMSCKSSQSLLNSGNQKNYLTWYQQKPGQPPKLLIYWASTRESGVPDRFSGSGSGTDFTLTISSLQAEDVAVYYCQNDYSYPYTFGQGTKLEIKGGGSGGGGEVQLVESGGGLVQPGGSLRLSCAASGFTFSTYAMNWVRQAPGKGLEWVGRIRSKYNNYATYYADSVKDRFTISRDDSKNSLYLQMNSLKTEDTAVYYCVRHGNFGNSYVSFFAYWGQGTLVTVSSGGCGGGKVAALKEKVAALKEKVAALKEKVAALKE
chain 2: QAVVTQEPSLTVSPGGTVTLTCRSSTGAVTTSNYANWVQQKPGQAPRGLIGGTNKRAPWTPARFSGSLLGGKAALTITGAQAEDEADYYCALWYSNLWVFGGGTKLTVLGGGGSGGGGEVQLVQSGAELKKPGASVKVSCKASGYTFTDYYMKWVRQAPGQGLEWIGDIIPSNGATFYNQKFKGRVTITVDKSTSTAYMELSSLRSEDTAVYYCARSHLLRASWFAYWGQGTLVTVSSGGCGGGEVAALEKEVAALEKEVAALEKEVAALEK
In the case of B3, in the experiment with CD3 on T-cells, the EC50 of cytolysis at 18 hours (CTL assay, Pan-T-cells and MOLM-13, E:T = 5:1) stood at 0.223 ng/mL; the EC50 of cytolysis at 42 hours (CTL assay, Pan-T-cells and MOLM-13, E:T = 5:1) was found to be 0.016 ng/mL; the R: ratio of 18 hour EC50 to DART-A-WT (CTL assay, Pan-T-cells and MOLM-13, E:T = 5:1) was determined as 2.8; the R: ratio of 42 hour EC50 to DART-A-WT (CTL assay, Pan-T-cells and MOLM-13, E:T = 5:1) was determined as 5.8. Also, in the experiment with CD3 on T-cells, the max % CytoTox at 18 hours (CTL assay, Pan-T-cells and MOLM-13, E:T = 5:1) stood at 48.5%; the max % CytoTox at 42 hours (CTL assay, Pan-T-cells and MOLM-13, E:T = 5:1) was 32.4%. Further, in experiment [1], the Kd came to 19.2 nM, the R (KD ratio to DART-A-WT) was determined as 2.4, the R (ka ratio to DART-A-WT) came out at 2.8 and the R (kd ratio to DART-A-WT) is 6.5. Further, in experiment [1], the koff is 0.0267 s⁻¹ and the kon turned out to be 1.39e+06 M⁻¹ s⁻¹.

B4: DART-A-M4 (bispecific antibody)
chain 1: DFVMTQSPDSLAVSLGERVTMSCKSSQSLLNSGNQKNYLTWYQQKPGQPPKLLIYWASTRESGVPDRFSGSGSGTDFTLTISSLQAEDVAVYYCQNDYSYPYTFGQGTKLEIKGGGSGGGGEVQLVESGGGLVQPGGSLRLSCAASGFTFSTYAMNWVRQAPGKGLEWVGRIRSKYNNYATYYADSVKDRFTISRDDSKNSLYLQMNSLKTEDTAVYYCVRHGNFGNSAVSWFAYWGQGTLVTVSSGGCGGGKVAALKEKVAALKEKVAALKEKVAALKE
chain 2: QAVVTQEPSLTVSPGGTVTLTCRSSTGAVTTSNYANWVQQKPGQAPRGLIGGTNKRAPWTPARFSGSLLGGKAALTITGAQAEDEADYYCALWYSNLWVFGGGTKLTVLGGGGSGGGGEVQLVQSGAELKKPGASVKVSCKASGYTFTDYYMKWVRQAPGQGLEWIGDIIPSNGATFYNQKFKGRVTITVDKSTSTAYMELSSLRSEDTAVYYCARSHLLRASWFAYWGQGTLVTVSSGGCGGGEVAALEKEVAALEKEVAALEKEVAALEK
B4: in the experiment with CD3 on T-cells, the EC50 of cytolysis at 18 hours (CTL assay, Pan-T-cells and MOLM-13, E:T = 5:1) stood at 0.176 ng/mL; the EC50 of cytolysis at 42 hours (CTL assay, Pan-T-cells and MOLM-13, E:T = 5:1) was determined as 0.011 ng/mL; the R: ratio of 18 hour EC50 to DART-A-WT (CTL assay, Pan-T-cells and MOLM-13, E:T = 5:1) was 2.2; the R: ratio of 42 hour EC50 to DART-A-WT (CTL assay, Pan-T-cells and MOLM-13, E:T = 5:1) worked out at 3.9. In the experiment with CD3 on T-cells, this molecule gave a max % CytoTox at 18 hours (CTL assay, Pan-T-cells and MOLM-13, E:T = 5:1) of 41.7%; a max % CytoTox at 42 hours (CTL assay, Pan-T-cells and MOLM-13, E:T = 5:1) of 29.8%. Also, in experiment [1], the Kd came to 25.7 nM, the R (KD ratio to DART-A-WT) is 3.1, the R (ka ratio to DART-A-WT) worked out at 1.6 and the R (kd ratio to DART-A-WT) is 5. For the same molecule, in experiment [1], the koff is 0.0203 s⁻¹ and the kon amounted to 790000 M⁻¹ s⁻¹.

B5: DART-A-M6 (bispecific antibody)
chain 1: DFVMTQSPDSLAVSLGERVTMSCKSSQSLLNSGNQKNYLTWYQQKPGQPPKLLIYWASTRESGVPDRFSGSGSGTDFTLTISSLQAEDVAVYYCQNDYSYPYTFGQGTKLEIKGGGSGGGGEVQLVESGGGLVQPGGSLRLSCAASGFTFSTYAMNWVRQAPGKGLEWVGRIRSKYNNYATYYADSVKDRFTISRDDSKNSLYLQMNSLKTEDTAVYYCVRHGNFGNSQVSWFAYWGQGTLVTVSSGGCGGGKVAALKEKVAALKEKVAALKEKVAALKE
chain 2: QAVVTQEPSLTVSPGGTVTLTCRSSTGAVTTSNYANWVQQKPGQAPRGLIGGTNKRAPWTPARFSGSLLGGKAALTITGAQAEDEADYYCALWYSNLWVFGGGTKLTVLGGGGSGGGGEVQLVQSGAELKKPGASVKVSCKASGYTFTDYYMKWVRQAPGQGLEWIGDIIPSNGATFYNQKFKGRVTITVDKSTSTAYMELSSLRSEDTAVYYCARSHLLRASWFAYWGQGTLVTVSSGGCGGGEVAALEKEVAALEKEVAALEKEVAALEK
For the molecule B5, in the experiment with CD3 on T-cells, the EC50 of cytolysis at 18 hours (CTL assay, Pan-T-cells and MOLM-13, E:T = 5:1) was determined as 0.162 ng/mL; the EC50 of cytolysis at 42 hours (CTL assay, Pan-T-cells and MOLM-13, E:T = 5:1) came out at 0.011 ng/mL; the R: ratio of 18 hour EC50 to DART-A-WT (CTL assay, Pan-T-cells and MOLM-13, E:T = 5:1) came out at 2.1; the R: ratio of 42 hour EC50 to DART-A-WT (CTL assay, Pan-T-cells and MOLM-13, E:T = 5:1) amounted to 3.9. In the experiment with CD3 on T-cells, this molecule yielded a max % CytoTox at 18 hours (CTL assay, Pan-T-cells and MOLM-13, E:T = 5:1) of 41.9%; a max % CytoTox at 42 hours (CTL assay, Pan-T-cells and MOLM-13, E:T = 5:1) of 29.5%. For the same molecule, in experiment [1], the Kd is 28.8 nM, the R (KD ratio to DART-A-WT) was determined as 3.5, the R (ka ratio to DART-A-WT) was found to be 1.4 and the R (kd ratio to DART-A-WT) is 4.9. In experiment [1], this molecule showed a koff of 0.0201 s⁻¹ and a kon of 699000 M⁻¹ s⁻¹.

The term Kd denotes the free concentration of one partner at which half of the binding sites on the other are occupied at equilibrium, for simple one-to-one binding. A high value points to a looser complex. In general, koff refers to a measure of how fast the partners let go of each other. A lower koff goes with slow dissociation. The term kon denotes a measure of how fast the partners come together. Low readings indicate slow association, high ones fast association.
